Data reported in paper PMC4838878 (2016).

B3: rat Unc5D ectodomain (Unc5D^ecto), biotinylated at a C-terminal Avitag (domain or fragment)
chain: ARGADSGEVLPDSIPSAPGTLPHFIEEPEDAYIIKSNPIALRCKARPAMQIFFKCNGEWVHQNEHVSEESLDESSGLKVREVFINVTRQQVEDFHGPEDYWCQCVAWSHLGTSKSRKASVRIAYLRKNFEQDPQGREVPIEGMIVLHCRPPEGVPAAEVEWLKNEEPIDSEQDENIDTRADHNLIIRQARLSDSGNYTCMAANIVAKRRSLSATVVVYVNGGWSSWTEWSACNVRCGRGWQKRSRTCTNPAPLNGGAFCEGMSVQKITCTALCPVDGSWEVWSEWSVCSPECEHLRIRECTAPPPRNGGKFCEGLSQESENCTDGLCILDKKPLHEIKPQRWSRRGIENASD
modifications: biotin on the C-terminal Avitag (enzymatic)

Tests used:
[1] = target: B3; test: SPR; apparent KD; FLRT2LRR mixed with Lphn3Lec-Olf
[2] = target: T1, Unc5D ectodomain (Unc5D^ecto), ITC construct (human (methods; the results say rat), UniProt Q6UXZ4 32-383); test: ITC
[3] = target: T2, Olf domain of mouse Latrophilin3 (Lphn3^Olf) (mouse, UniProt Q80TS3-3 199-495); test: ITC
T2 chain: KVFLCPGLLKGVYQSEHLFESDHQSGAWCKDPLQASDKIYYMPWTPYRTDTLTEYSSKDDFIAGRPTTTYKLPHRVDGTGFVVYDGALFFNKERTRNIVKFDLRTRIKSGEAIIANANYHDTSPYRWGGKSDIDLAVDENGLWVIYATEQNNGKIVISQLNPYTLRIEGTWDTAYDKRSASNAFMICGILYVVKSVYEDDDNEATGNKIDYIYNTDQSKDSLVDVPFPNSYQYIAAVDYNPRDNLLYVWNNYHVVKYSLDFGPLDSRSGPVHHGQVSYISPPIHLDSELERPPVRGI

[4] = target: FLRT2^LRR+Lphn3^Lec–Olf DDD mutant (mouse, UniProt Q8BLU0 35-362; Q80TS3-3 92-463, D397N | D399T, artificial N-linked glycan at position 397); test: SPR; apparent KD; FLRT2LRR mixed with Lphn3Lec-Olf DDD mutant
[5] = target: T1, Unc5D ectodomain (Unc5D^ecto), ITC …; test: ITC; FLRT2ecto premixed 1:1 with Lphn3Olf

T1 sequence (Q6UXZ4 32-383): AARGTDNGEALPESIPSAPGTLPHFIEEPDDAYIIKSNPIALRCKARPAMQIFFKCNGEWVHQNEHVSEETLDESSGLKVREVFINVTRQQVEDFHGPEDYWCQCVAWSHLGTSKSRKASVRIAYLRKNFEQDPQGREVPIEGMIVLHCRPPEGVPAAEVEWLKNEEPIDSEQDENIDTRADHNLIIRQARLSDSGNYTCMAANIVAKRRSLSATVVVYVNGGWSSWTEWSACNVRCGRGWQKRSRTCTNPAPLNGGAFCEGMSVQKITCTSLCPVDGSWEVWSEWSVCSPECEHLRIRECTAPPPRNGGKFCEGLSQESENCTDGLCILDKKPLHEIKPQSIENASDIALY

B1: FLRT2^LRR+Lphn3^Lec–Olf (mixed in a 1:2 molar ratio) (complex)
chain 1: ACPSVCRCDRNFVYCNERSLTSVPLGIPEGVTVLYLHNNQINNAGFPAELHNVQSVHTVYLYGNQLDEFPMNLPKNVRVLHLQENNIQTISRAALAQLLKLEELHLDDNSISTVGVEDGAFREAISLKLLFLSKNHLSSVPVGLPVDLQELRVDENRIAVISDMAFQNLTSLERLIVDGNLLTNKGIAEGTFSHLTKLKEFSIVRNSLSHPPPDLPGTHLIRLYLQDNQINHIPLTAFANLRKLERLDISNNQLRMLTQGVFDHLSNLKQLTARNNPWFCDCSIKWVTEWLKYIPSSLNVRGFMCQGPEQVRGMAVRELNMNLLSCPT
chain 2: PIPMAVVRRELSCESYPIELRCPGTDVIMIESANYGRTDDKICDSDPAQMENIRCYLPDAYKIMSQRCNNRTQCAVVAGPDVFPDPCPGTYKYLEVQYECVPYKVEQKVFLCPGLLKGVYQSEHLFESDHQSGAWCKDPLQASDKIYYMPWTPYRTDTLTEYSSKDDFIAGRPTTTYKLPHRVDGTGFVVYDGALFFNKERTRNIVKFDLRTRIKSGEAIIANANYHDTSPYRWGGKSDIDLAVDENGLWVIYATEQNNGKIVISQLNPYTLRIEGTWDTAYDKRSASNAFMICGILYVVKSVYEDDDNEATGNKIDYIYNTDQSKDSLVDVPFPNSYQYIAAVDYNPRDNLLYVWNNYHVVKYSLDFGPLD
Binder B1 has a Kd [1] of ~9 nM.

B2: mouse FLRT2 ectodomain (FLRT2^ecto), ITC construct (domain or fragment)
chain: CPSVCRCDRNFVYCNERSLTSVPLGIPEGVTVLYLHNNQINNAGFPAELHNVQSVHTVYLYGNQLDEFPMNLPKNVRVLHLQENNIQTISRAALAQLLKLEELHLDDNSISTVGVEDGAFREAISLKLLFLSKNHLSSVPVGLPVDLQELRVDENRIAVISDMAFQNLTSLERLIVDGNLLTNKGIAEGTFSHLTKLKEFSIVRNSLSHPPPDLPGTHLIRLYLQDNQINHIPLTAFANLRKLERLDISNNQLRMLTQGVFDHLSNLKQLTARNNPWFCDCSIKWVTEWLKYIPSSLNVRGFMCQGPEQVRGMAVRELNMNLLSCPTTTPGLPVFTPAPSTVSPTTQSPTLSVPSPSRGSVPPAPTPSKLPTIPDWDGRERVTPPISERIQLSIHFVNDTSIQVSWLSLFTVMAYKLTWVKMGHSLVGGIVQERIVSGEKQHLSLVNLEPRSTYRICLVPLDAFNYRTVEDTICSEATTHASYLNNGSNTASSHEQTTSHSMGSPF
Work on B2 yielded a Kd [2] of 2300 nM and a Kd [3] of 9.7 nM.

Work on B3 yielded a Kd [4] of ~9 nM.

B4: FLRT2^ecto+Lphn3^Olf (kept together in the ITC cell) (complex)
chain 1: CPSVCRCDRNFVYCNERSLTSVPLGIPEGVTVLYLHNNQINNAGFPAELHNVQSVHTVYLYGNQLDEFPMNLPKNVRVLHLQENNIQTISRAALAQLLKLEELHLDDNSISTVGVEDGAFREAISLKLLFLSKNHLSSVPVGLPVDLQELRVDENRIAVISDMAFQNLTSLERLIVDGNLLTNKGIAEGTFSHLTKLKEFSIVRNSLSHPPPDLPGTHLIRLYLQDNQINHIPLTAFANLRKLERLDISNNQLRMLTQGVFDHLSNLKQLTARNNPWFCDCSIKWVTEWLKYIPSSLNVRGFMCQGPEQVRGMAVRELNMNLLSCPTTTPGLPVFTPAPSTVSPTTQSPTLSVPSPSRGSVPPAPTPSKLPTIPDWDGRERVTPPISERIQLSIHFVNDTSIQVSWLSLFTVMAYKLTWVKMGHSLVGGIVQERIVSGEKQHLSLVNLEPRSTYRICLVPLDAFNYRTVEDTICSEATTHASYLNNGSNTASSHEQTTSHSMGSPF
chain 2: KVFLCPGLLKGVYQSEHLFESDHQSGAWCKDPLQASDKIYYMPWTPYRTDTLTEYSSKDDFIAGRPTTTYKLPHRVDGTGFVVYDGALFFNKERTRNIVKFDLRTRIKSGEAIIANANYHDTSPYRWGGKSDIDLAVDENGLWVIYATEQNNGKIVISQLNPYTLRIEGTWDTAYDKRSASNAFMICGILYVVKSVYEDDDNEATGNKIDYIYNTDQSKDSLVDVPFPNSYQYIAAVDYNPRDNLLYVWNNYHVVKYSLDFGPLDSRSGPVHHGQVSYISPPIHLDSELERPPVRGI
Binder B4 has a Kd [5] of 106 nM.
